Assay results from PMC12196469, “Synthesis and Characterization of Transferrin Receptor-Targeted Peptide Combination SN-38 and Rucaparib Conjugate for the Treatment of Glioblastoma” (Pharmaceutics, 2025).

Key:
human liver cathepsin B = biological target: T1, human liver cathepsin B (Homo sapiens, UniProt P07858); experiment: In vitro cleavage of T7-SN-38-rucaparib by exogenous cathepsin B (RP-HPLC); assay type: in vitro ADME; details: sodium acetate buffer with EDTA and DTT, pH 6.0, 37 °C, conjugate 210 µM, n = 3
T1 construct: human liver cathepsin B stock (0.47 mg/mL, 324 U/mg, Merck Millipore); purchased Merck Millipore; host or cells: human liver (tissue-derived, as the product name says)
Description: The cleavage profile of T7-SN-38-rucaparib was evaluated by following a published method. Using this method, 11 μL of human liver cathepsin B stock (0.47 mg/mL, 324 U/mg, Merck Millipore) was activated in 27.2 μL of activation buffer (30 mM DTT, 15 mM EDTA in H2O) for 15 min. This mixture was added to 4.9 mL of reaction buffer (150 mM sodium acetate buffer, 12 mM EDTA, 24 mM DTT in H2O, pH 6.0). Cleavage was initiated by adding the cathepsin B solution to the T7-SN-38-rucaparib stock solution (8) in DMSO (final concentration 210 µM). The reaction was allowed to proceed at 37 °C, and samples were taken and analyzed by RP-HPLC at predetermined intervals (0–24 h). Changes in peak areas of the pure drugs and conjugate at their characteristic retention times to observe the disappearance of T7-SN-38-rucaparib and the appearance of free SN-38 and rucaparib over a 24 h period were monitored.

HEK-293 cells = experiment: XTT cytotoxicity on HEK-293 cells; details: HEK-293 cells, 24 h, p < 0.05, n = 4
Description: (§1) HEK-293 cells (15,000/well), seeded in 96-well plates, were allowed to attach for 24 h. […] To evaluate cytotoxicity, XTT solution was added to each well at 24 and 72 h after treatment per manufacturer protocol. Following a 3-h incubation period, the absorbance of each well was measured at 450 nm using a Biotek ELx808 microplate reader (Lonza). Average absorbance values of the cells treated with different concentrations of test agents were normalized to those of untreated cell controls, and percent cell viability was plotted using GraphPad Prism 10.
(§2) IC50 values were calculated by concentration-response curve fitting using Microsoft Excel 16.77 (Microsoft Corp). Data represent mean ± standard deviation (SD) unless otherwise indicated. Differences between groups were determined by ANOVA, with a p-value < 0.05 deemed statistically significant.

[1] = XTT cytotoxicity on HEK-293 cells
Description: as §1, §2

[2] = tested on: U87MG cells with blocked transferrin receptors; experiment: T7 competition assay with or without exogenous cathepsin B on TfR-blocked U87MG cells; details: 20 nM drug equivalents, exogenous cathepsin B added, 72 h, XTT, n = 4
Description: In these studies, blocking was done as reported for the transferrin receptor blocking studies above. […] In an additional step, exogenous cathepsin B was added to the treated wells. In a parallel experiment, cells were treated with the same test agents at the same concentrations but without exogenous cathepsin B. XTT assays were conducted at 72 h following the manufacturer’s protocol for cytotoxicity. Percent cell viability was calculated, and the data were plotted using GraphPad Prism 10.

[3] = XTT cytotoxicity on U87MG cells
Description: U87MG cells (10,000 cells per well) were seeded in 96-well plates and allowed to attach for 24 h. […] To evaluate cytotoxicity, XTT solution was added to each well per manufacturer protocols at 24 and 72 h after treatment. Following a 3-h incubation period, the absorbance of each well was measured at 450 nm using a Biotek ELx808 microplate reader (Lonza, Basel, Switzerland). Average absorbance values of the cells treated with different concentrations of test agents were normalized to those of the untreated cell controls. GraphPad Prism 10 was used to plot percent cell viability.
U87MG cells (10,000/well), seeded in 96-well plates, were allowed to attach for 24 h. The cells, incubated at 37 °C, were then treated with rucaparib solution at concentrations ranging from 5 nM to 160 nM. To evaluate cytotoxicity, XTT solution was added to each well at 24 and 72 h after treatment per manufacturer protocol. Following a 3-h incubation period, the absorbance of each well was measured at 450 nm using a Biotek ELx808 microplate reader (Lonza). The average absorbance of the cells treated with different concentrations of rucaparib were normalized to those of untreated cell controls. […]
IC50 values were calculated by concentration-response curve fitting using Microsoft Excel 16.77 (Microsoft Corp). […] Differences between groups were determined by ANOVA, with a p-value < 0.05 deemed statistically significant.

[4] = Control incubation of conjugate in enzyme-free buffer pH 6.0; assay type: in vitro ADME; details: pH 6.0, no cathepsin B, RP-HPLC, over 24 h
Description: The cleavage profile of T7-SN-38-rucaparib was evaluated by following a published method. […] This mixture was added to 4.9 mL of reaction buffer (150 mM sodium acetate buffer, 12 mM EDTA, 24 mM DTT in H2O, pH 6.0). […] The reaction was allowed to proceed at 37 °C, and samples were taken and analyzed by RP-HPLC at predetermined intervals (0–24 h). Changes in peak areas of the pure drugs and conjugate at their characteristic retention times to observe the disappearance of T7-SN-38-rucaparib and the appearance of free SN-38 and rucaparib over a 24 h period were monitored.

Structure (SMILES): CCc1c2c(nc3ccc(OCc4ccc(NC(=O)[C@H](C)NC(=O)[C@@H](NC(=O)CCCCCNC(=O)COCCOCCOCCNC(=O)CCCCC(=O)N5Cc6ccccc6-c6c(nnn6CCOCCOCCOCCOCCC(=O)N[C@@H](CSC6CC(=O)N(CCC(=O)NCCOCCOCCOCCOCCC(=O)NCCCCCC(=O)N[C@H](C(=O)N[C@@H](C)C(=O)Nc7ccc(COC(=O)N(C)Cc8ccc(-c9[nH]c%10cc(F)cc%11c%10c9CCNC%11=O)cc8)cc7)C(C)C)C6=O)C(=O)NCCOCCOCCOCC(=O)N[C@@H](Cc6c[nH]cn6)C(=O)N[C@@H](C)C(=O)N[C@H](C(=O)N[C@@H](Cc6ccc(O)cc6)C(=O)N6CCC[C@H]6C(=O)N[C@@H](CCCNC(=N)N)C(=O)N[C@@H](Cc6c[nH]cn6)C(=O)O)[C@@H](C)CC)-c6ccccc65)C(C)C)cc4)cc13)-c1cc3c(c(=O)n1C2)COC(=O)[C@]3(O)CC (stereo partly drawn) [T7-SN-38-rucaparib]
- Percent Cleaved (human liver cathepsin B; time 1 h): 17.8%
- Percent Cleaved (human liver cathepsin B; time 4 h): 43.8%
- Percent Cleaved (human liver cathepsin B; time 8 h): 61.6%
- Percent Cleaved (human liver cathepsin B; time 24 h): 87.3%
- cytotoxicity, conjugate versus free drugs (HEK-293 cells): significantly lower cytotoxicity compared to free SN-38-rucaparib
- IC50 [1]: 116 nM
- cytotoxicity with exogenous cathepsin B [2]: comparable cytotoxicity to the cells treated with free drugs
- IC50 [3]: 22.3 nM
- release of free drugs in enzyme-free buffer [4]: < 10%
